Usually Kd stands for the free concentration of one partner at which half of the binding sites on the other are occupied at equilibrium, for simple one-to-one binding.

Here are results for one molecule from publication PMC12985673.

The target in this assay is NRXβ1 ECD (amino acids 81 to 311), His-tagged, labelled with Alexa Fluor 488, P0DI97. The assay is described as follows: fluorescence polarisation. Particulars: chain shown with the change; Hill equation fit, shared slope n = 1.05 ± 0.05; NL2 concentration 0-8 µM; parent: 6.2 ± 0.4 µM. For orientation: Polarisation of emitted light reports the rotation of a fluorescent probe.
Sequence of NRXβ1 ECD (amino acids 81 to 311), His-tagged, labelled with Alexa Fluor 488, P0DI97 (P0DI97 other isoform, or with tags, fused parts or gaps): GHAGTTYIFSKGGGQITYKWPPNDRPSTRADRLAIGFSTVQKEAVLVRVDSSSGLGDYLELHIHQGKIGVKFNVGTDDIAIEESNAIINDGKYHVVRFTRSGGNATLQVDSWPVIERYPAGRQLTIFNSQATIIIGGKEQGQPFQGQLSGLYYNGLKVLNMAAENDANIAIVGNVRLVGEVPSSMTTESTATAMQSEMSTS

B1: full-length neuroligin 2 (NL2), mouse, without the splice insert at site A, Q69ZK9 H279Y; G282K (protein)
chain: MWLLALCLVGLAGAQRGGGGPGGGAPGGPGLGLGSLGEERFPVVNTAYGRVRGVRRELNNEILGPVVQFLGVPYATPPLGARRFQPPEAPASWPGVRNATTLPPACPQNLHGALPAIMLPVWFTDNLEAAATYVQNQSEDCLYLNLYVPTEDGPLTKKRDEATLNPPDTDIRDSGKKPVMLFLHGGSYMEGTGNMFDGSVLAAYGNVIVVTLNYRLGVLGFLSTGDQAAKGNYGLLDQIQALRWLSENIAHFGGDPERITIFGSGAGASCVNLLILSHYSEKLFQKAIAQSGTAISSWSVNYQPLKYTRLLAAKVGCDREDSTEAVECLRRKSSRELVDQDVQPARYHIAFGPVVDGDVVPDDPEILMQQGEFLNYDMLIGVNQGEGLKFVEDSAESEDGVSASAFDFTVSNFVDNLYGYPEGKDVLRETIKFMYTDWADRDNGEMRRKTLLALFTDHQWVAPAVATAKLHADYQSPVYFYTFYHHCQAEGRPEWADAAHGDELPYVFGVPMVGATDLFPCNFSKNDVMLSAVVMTYWTNFAKTGDPNQPVPQDTKFIHTKPNRFEEVVWSKFNSKEKQYLHIGLKPRVRDNYRANKVAFWLELVPHLHNLHTELFTTTTRLPPYATRWPPRTPGPGTSGTRRPPPPATLPPESDIDLGPRAYDRFPGDSRDYSTELSVTVAVGASLLFLNILAFAALYYKRDRRQELRCRRLSPPGGSGSGVPGGGPLLPTAGRELPPEEELVSLQLKRGGGVGADPAEALRPACPPDYTLALRRAPDDVPLLAPGALTLLPSGLGPPPPPPPPSLHPFGPFPPPPPTATSHNNTLPHPHSTTRV
For B1, the dissociation constant (Kd) came to 320 nM.
